Results reported in the supplement of paper PMC10126150.
± gives the standard deviation of the averaged measurements.

Tested on: ATP
Experiment: switch fluorescence ratio, 500 uM ATP over buffer (Cy3 cluster intensity, sum of 5 cycles each) (fold (ratio)); higher = stronger signal-on switching upon ATP binding; sequences stand for … in TCGTCGGCAGCGTCAGATGTGTATAAGAGACAGTTTTTTTTTTTTTTTTTTTTTTTTT…TC
Conditions: aptamer strand: ATP DNA aptamer (quencher-CACCTGGGGGAGTATTGCGGAGGAAGG + anchor), 100 nM annealed; ATP concentration: 500 uM
Procedure, shortened: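 Exposure to 500 uM ATP lasted 15 min at 22 °C before imaging, and a selection-buffer image was taken beforehand, for Cy3-labelled switching-strand clusters on a modified Illumina MiSeq flow-cell annealed to 100 nM quencher-labelled ATP aptamer. Five buffer/ATP cycles were run with NaOH stripping and re-annealing between them. The fluorescence ratio per cluster is summed target-cycle over summed buffer-cycle Cy3 intensity, averaged per switch-domain sequence. Clusters outside 100-1000 RFU were excluded.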

Sequence	switch fluorescence ratio
CCTAGCTG	1.02 ± 0.056
CGTCAGGGGG	0.972 ± 0.027
GATTACTTCA	1.065 ± 0.0071
GTAATTGGGC	0.964 ± 0.061
ATCACGGGAT	1.015 ± 0.0039
TTGGGGTTAG	0.988 ± 0.017
GACGGGGCG	0.97 ± 0.057
CTTCAGTCTT	1 ± 0.011
TTTATCGGCT	1.06 ± 0.078
ACGTGGGGGA	1.02 ± 0.051
GATCCGAGTT	0.99 ± 0.034
ATGCGTCGGA	1.032 ± 0.0066
ATCAAGACAG	1.01 ± 0.033
CATGTTATCC	1.01 ± 0.034
AATTTTAGTA	1.02 ± 0.019
AAGATCTCTA	1.01 ± 0.015
CTTTGGGTTT	0.981 ± 0.058
TTTTAGGACC	1 ± 0.025
TCCGTTGGTG	1.01 ± 0.072
AGGCACGTCG	1.021 ± 0.009
AGATTCCGGT	0.976 ± 0.016
CTTTAAGCAA	4.65 ± 0.36

Sequence	switch fluorescence ratio
TGAATGATTG	0.995 ± 0.013
AACTACGCTT	1.48 ± 0.099
GGATTAGTGC	1.06 ± 0.039
CGGGCCCTGA	0.977 ± 0.013
CATCGGAGGA	1.02 ± 0.025
TTTTGACGCG	1.06 ± 0.052
CGGTTAGTGT	0.971 ± 0.035
TAGACAAAAA	1.08 ± 0.12
TTTTCGATTA	0.987 ± 0.016
TTCCTGAGTT	1.16 ± 0.21
ATTAGACATT	1.003 ± 0.0016
CATGATTGCG	0.985 ± 0.024
GTTAACAGGA	0.985 ± 0.019
GTTGGGGCTG	0.973 ± 0.14
TTTCAATTTG	1.04 ± 0.049
TCACACGGAG	1.043 ± 0.0056
TATTAGGGTT	1.03 ± 0.045
GAGTGCGACG	1.08 ± 0.078
ATCGTTAGAA	1.006 ± 0.0025
GAGCTATTCG	1.01 ± 0.047
CCTGCAGAGC	1.28 ± 0.058
TGTCGTTTTT	1.01 ± 0.039

Sequence	switch fluorescence ratio
GAAGGGGCAG	0.97 ± 0.014
GGGAGTCAGC	1.012 ± 0.008
TTCTGAGGGA	1 ± 0.03
ATTTTGGTTG	1.01 ± 0.035
ATGGCAGGTT	1.01 ± 0.021
GGAATATATA	0.951 ± 0.013
CTCATCGGGC	1.06 ± 0.032
ATTGTTTTTC	1.04 ± 0.073
GGTATTGGGA	0.989 ± 0.018
ATGGGCACGT	0.983 ± 0.019
GGACGATCGG	0.9765 ± 0.0046
TTTATTAATT	1 ± 0.029
ATGCATAGTT	0.963 ± 0.017
GGGTTTGGGG	0.988 ± 0.022
CGAGGGAACG	1 ± 0.04
AATCCCTGGG	1.07 ± 0.033
GAGTCGGTTA	0.98 ± 0.045
TTTAACTAGA	1.041 ± 0.0061
AGTGCACGTG	1 ± 0.061
ATGTTGCCGT	1.01 ± 0.13
GCTGGTGGGT	0.988 ± 0.012
ATTAAAGGAG	1.01 ± 0.017

Sequence	switch fluorescence ratio
TTGTGTAATT	1.06 ± 0.05
GGGAGCATCG	0.9709 ± 0.0055
AGATCCATTT	0.991 ± 0.055
AAATGTTTAC	1.034 ± 0.0095
CAGTGTGGTT	1.11 ± 0.24
TATATATTGC	1.02 ± 0.03
AGGCAGTGTC	1.04 ± 0.05
GTGGGTAGCG	0.994 ± 0.013
CCTTGTGGGA	0.983 ± 0.011
AAGTGTGGGT	1 ± 0.075
CTGGCGTTCG	0.983 ± 0.033
ACATGCTGTA	0.995 ± 0.024
GCAGTCACAG	1.03 ± 0.029
CGGGCGCGTT	0.984 ± 0.054
AGTGACCTAG	1.017 ± 0.0039
GGGGGGGGG	1 ± 0.04
AATTAGATTT	1.021 ± 0.0055
TGTTTAGGAG	1.014 ± 0.0078
AGAAAAAATT	1 ± 0.017
